Drawing on paper PMC7772352, this text covers percentage of GFP fluorescence signal in DF-1 cells transfected with RCASBPGDFX0602 G196A-EGFP (recombinant virus; wild type 89.65%) and percentage of GFP fluorescence signal in DF-1 cells transfected with RCASBP GDFX0602 R198H-EGFP (recombinant virus; wild type 89.65%) for two substances.

For this test, the target named is Tva-HA-Fc.

With “soluble gp85-flag G196A (natural protein)”, the percentage of GFP fluorescence signal in DF-1 cells transfected with RCASBPGDFX0602 G196A-EGFP (recombinant virus; wild type 89.65%) worked out at 0.24%. With “soluble gp85-flag R198H (natural protein)”, the percentage of GFP fluorescence signal in DF-1 cells transfected with RCASBP GDFX0602 R198H-EGFP (recombinant virus; wild type 89.65%) is 0.49%.
